Consider one substance from patent US20220185907A1.

A word on the EC50: it is the concentration at which the effect is half-maximal.

Assay [1] has as its target CD38 on cells (Raji, Daudi, REH, CD38-transfected HEK293) (human) (UniProt P28907). Nature of the assay: flow cytometry on Raji cells; top asymptote fixed at about the maximum response of Darzalex. For orientation: In flow cytometry, cells or beads pass a laser one at a time.
For assay [2] the target is unchanged. Nature of the assay: flow cytometry on Raji cells (express CD19 and CD38).
For assay [3] the target is unchanged. In words: flow cytometry on Raji cells (express CD19 and CD38), 11 concentrations from 30 ug/mL.

Darzalex® (CD38 control) (antibody): the Adjusted EC50 in assay [1] amounted to 1.27 nM. The substance further came in with an EC50 in assay [2] of 1.27 nM. Besides, in assay [3], the EC50 was 0.195 µg/mL and the Max MFI worked out at 4.02e+06 MFI.
